Measurements published in patent US20240116985A1, “STAPLED PEPTIDES AND METHODS THEREOF” (priority 2020, published 2024).
Starred links: 1 amine or outer side, 2 acyl side, 3 side chain; linkers in the order of their positions; H or OH if unused. Positions of bridges follow the written chain, without caps; N, C: chain ends. Non-standard residues stand in square brackets, D forms with d. Primed or numbered codes have the meaning given here. *: point of attachment. PyrS2″ = (S)-3-amino-1-((pent-4-en-1-yloxy)carbonyl)pyrrolidine-3-carboxylic acid (stapling residue), C=CCCCOC(=O)N1CC[C@@](N[*:1])(C(=O)[*:2])C1; B5(4) = 2,2-bis(4-pentenyl)glycine = 2-amino-2-(pent-4-en-1-yl)hept-6-enoic acid (stitching residue), C=CCCCC(CCCC=C)(N[*:1])C(=O)[*:2]; B5(5) = 2,2-bis(4-pentenyl)glycine, 2-amino-2-(pent-4-en-1-yl)hept-6-enoic acid (stitching residue), C=CCCCC(CCCC=C)(N[*:1])C(=O)[*:2]; TfeGA = (S)-2-amino-3-((carboxymethyl)(2,2,2-trifluoroethyl)amino)propanoic acid, O=C([C@H](CN(CC(=O)[*:3])CC(F)(F)F)N[*:1])[*:2]; PyrS2 = (S)-3-amino-1-((pent-4-en-1-yloxy)carbonyl)pyrrolidine-3-carboxylic acid, C=CCCCOC(=O)N1CC[C@@](N[*:1])(C(=O)[*:2])C1; B5(19) = 2-amino-2-(pent-4-en-1-yl)hept-6-enoic acid (bis(4-pentenyl)glycine), C=CCCCC(CCCC=C)(N[*:1])C(=O)[*:2]; MePpzAsn = (S)-2-amino-4-(4-methylpiperazin-1-yl)-4-oxobutanoic acid, CN1CCN(C(=O)C[C@H](N[*:1])C(=O)[*:2])CC1; F2PipNva = (S)-2-amino-5-(4,4-difluoropiperidin-1-yl)pentanoic acid, O=C([C@H](CCCN1CCC(F)(F)CC1)N[*:1])[*:2]; B5(25) = 2-amino-2-(pent-4-en-1-yl)hept-6-enoic acid (stitching residue), C=CCCCC(CCCC=C)(N[*:1])C(=O)[*:2]; MorphAsn = (S)-2-amino-4-morpholino-4-oxobutanoic acid, O=C(C[C@H](N[*:1])C(=O)[*:2])N1CCOCC1; B5(3) = 2,2-bis(4-pentenyl)glycine (stitching residue), C=CCCCC(CCCC=C)(N[*:1])C(=O)[*:2]; Phe(F5) = N[C@@H](Cc1c(F)c(F)c(F)c(F)c1F)C(=O)O; Nva(5-morpholino) = N[C@@H](CCCN1CCOCC1)C(=O)O; Phe(3-COOH) = N[C@@H](Cc1cccc(C(=O)O)c1)C(=O)O; 2F3MeF = Cc1cccc(C[C@H](N[*:1])C(=O)[*:2])c1F; Phe(2-Cl) = N[C@@H](Cc1ccccc1Cl)C(=O)O; Bta = N[C@@H](Cc1csc2ccccc12)C(=O)O; Isobutyloxycarbonyl = CC(C)COC(=O)*; Lys(iPr) = CC(C)NCCCC[C@H](N)C(=O)O; hTyr = N[C@@H](CCc1ccc(O)cc1)C(=O)O; αAllylPro = C=CC[C@@]1(C(=O)O)CCCN1; tBuAla = CC(C)(C)C[C@H](N)C(=O)O; 3Thi = N[C@@H](Cc1ccsc1)C(=O)O; Butoxycarbonyl = CCCCOC(=O)*; R5 = C=CCCC[C@@](C)(N)C(=O)O; hLeu = CC(C)CC[C@H](N)C(=O)O; S5 = C=CCCC[C@](C)(N)C(=O)O; hSer = N[C@@H](CCO)C(=O)O; Nle = CCCC[C@H](N)C(=O)O; Aib = CC(C)(N)C(=O)O; Moc = COC(=O)*

B1: I-1778 (peptide)
peptide: Ac-[αAllylPro]D[tBuAla][S5]DDAAF[R5]A[3Thi][Bta][S5]A-NH2
modifications: staple (positions not given here); not fully specified; printed as Ac-PL3-Asp-Npg-S5-Asp-Asp-Ala-Ala-Phe-R5-Ala-3Thi-BztA-S5-Ala-NH2; also: staple pairing among PL3 1, S5 4, R5 10, S5 14 not given here
B2: I-1780 (peptide)
peptide: Ac-[αAllylPro]D[tBuAla][S5]DD[Aib]AF[R5]A[3Thi][Bta][S5]A-NH2
modifications: staple (positions not given here); not fully specified; printed as Ac-PL3-Asp-Npg-S5-Asp-Asp-Aib-Ala-Phe-R5-Ala-3Thi-BztA-S5-Ala-NH2; also: staple pairing among PL3 1, S5 4, R5 10, S5 14 not given here
B3: I-1781 (peptide)
peptide: Ac-[αAllylPro]D[tBuAla][S5]DD[Aib]AF[R5]A[3Thi][Bta][S5]A-NH2
modifications: staple (positions not given here); not fully specified; printed as Ac-PL3-Asp-Npg-S5-Asp-Asp-Aib-Ala-Phe-R5-Ala-3Thi-BztA-S5-Ala-NH2; also: staple pairing among PL3 1, S5 4, R5 10, S5 14 not given here
B4: I-1793 (peptide)
peptide: Ac-[αAllylPro]D[tBuAla][B5(19)]DHAAF[hSer][PyrS2][3Thi][Bta]Q-NH2
modifications: staple 1-4, 4-11; not fully specified; printed as Ac-PL3-Asp-Npg-B5-Asp-His-Ala-Ala-Phe-Hse-PyrS2-3Thi-BztA-Gln-NH2
B5: I-1794 (peptide)
peptide: Ac-[αAllylPro]D[tBuAla][B5(3)]DHAAF[hSer][PyrS2″][3Thi][Bta]Q-NH2
modifications: staple 1-4, 4-11; not fully specified; printed as Ac-PL3-Asp-Npg-B5-Asp-His-Ala-Ala-Phe-Hse-PyrS2-3Thi-BztA-Gln-NH2

Biological target: full-length beta-Catenin (Uniprot ID P35222) (Homo sapiens (Human)) (UniProt P35222)
Assay: fluorescence polarization competition; 10 nM full-length beta-catenin + 10 nM 5FAM-TCF4(10-53) probe
Target sequence in this assay (P35222 whole entry): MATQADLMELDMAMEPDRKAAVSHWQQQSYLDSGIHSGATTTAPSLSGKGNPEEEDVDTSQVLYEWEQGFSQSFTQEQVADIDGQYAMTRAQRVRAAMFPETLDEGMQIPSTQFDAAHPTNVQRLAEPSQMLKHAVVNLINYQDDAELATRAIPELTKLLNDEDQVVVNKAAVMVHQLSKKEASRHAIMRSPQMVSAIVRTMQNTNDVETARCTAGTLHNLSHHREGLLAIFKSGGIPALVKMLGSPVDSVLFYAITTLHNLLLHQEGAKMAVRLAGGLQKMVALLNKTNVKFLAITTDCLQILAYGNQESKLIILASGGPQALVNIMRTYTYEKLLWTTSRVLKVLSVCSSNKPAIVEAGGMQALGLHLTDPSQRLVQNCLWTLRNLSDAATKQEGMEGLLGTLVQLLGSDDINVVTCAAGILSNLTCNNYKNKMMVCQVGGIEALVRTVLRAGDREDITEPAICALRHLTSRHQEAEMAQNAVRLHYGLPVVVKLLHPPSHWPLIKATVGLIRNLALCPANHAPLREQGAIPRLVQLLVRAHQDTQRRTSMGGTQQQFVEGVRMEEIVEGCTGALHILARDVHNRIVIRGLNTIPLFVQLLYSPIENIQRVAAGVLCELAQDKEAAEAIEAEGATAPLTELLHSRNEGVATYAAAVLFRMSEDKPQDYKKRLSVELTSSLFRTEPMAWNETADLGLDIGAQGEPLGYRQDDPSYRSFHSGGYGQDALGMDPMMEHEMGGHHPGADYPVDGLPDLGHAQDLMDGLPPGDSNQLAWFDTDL

Binder | EC50
Ac-[αAllylPro]D[tBuAla][B5(25)]D[TfeGA]AAFF[PyrS2″][3Thi][Bta]S-NH2 (staple 1-4, 4-11; not fully specified) [I-963] | 402 nM

Biological target: full-length beta-Catenin (Uniprot ID P35222) (Homo sapiens (Human)) (UniProt P35222)
Assay: fluorescence polarization competition against 5FAM-TCF4 10-53 on full-length beta-catenin

Binder | IC50
Ac-[αAllylPro]N[tBuAla][B5(4)]DT[Lys(iPr)]ASL[PyrS2]F[Bta]Q-NH2 (staple 1-4, 4-11) [I-1597] | 6990 nM
Ac-[αAllylPro]N[tBuAla][B5(4)]DT[Lys(iPr)]AFF[PyrS2]F[Bta]Q-NH2 (staple 1-4, 4-11) [I-1599] | 1080 nM
Ac-[αAllylPro]N[tBuAla][B5(4)]DT[Lys(iPr)]AFW[PyrS2]F[Bta]Q-NH2 (staple 1-4, 4-11) [I-1600] | 4290 nM
Ac-[αAllylPro]N[tBuAla][B5(4)]DT[Lys(iPr)]AFS[PyrS2]F[Bta]Q-NH2 (staple 1-4, 4-11) [I-1601] | 2020 nM
Ac-[αAllylPro]N[tBuAla][B5(4)]DT[Lys(iPr)]AFN[PyrS2]F[Bta]Q-NH2 (staple 1-4, 4-11) [I-1602] | 362 nM
Ac-[αAllylPro]D[tBuAla][B5(4)]D[TfeGA]AAFT[PyrS2][Phe(2-Cl)][Bta][F2PipNva]-NH2 (staple 1-4, 4-11) [I-1607] | 49 nM
Ac-[αAllylPro]D[tBuAla][B5(4)]D[Phe(3-COOH)]AAFL[PyrS2][2F3MeF][Bta][F2PipNva]-NH2 (staple 1-4, 4-11) [I-1608] | 76 nM
Ac-[αAllylPro]D[tBuAla][B5(3)]D[TfeGA]AAFT[PyrS2][Phe(2-Cl)][Bta][Nva(5-morpholino)]-NH2 (staple 1-4, 4-11) [I-1609] | 15 nM
Ac-[αAllylPro]D[tBuAla][B5(3)]D[Phe(3-COOH)]AAFL[PyrS2][2F3MeF][Bta][Nva(5-morpholino)]-NH2 (staple 1-4, 4-11) [I-1610] | 19 nM
Ac-[αAllylPro]D[tBuAla][B5(3)]D[TfeGA]AAFT[PyrS2″][Phe(2-Cl)][Bta][MePpzAsn]-NH2 (staple 1-4, 4-11) [I-1611] | 10 nM
Ac-[αAllylPro]D[tBuAla][B5(3)]D[Phe(3-COOH)]AAFL[PyrS2″][2F3MeF][Bta][MePpzAsn]-NH2 (staple 1-4, 4-11) [I-1612] | 10 nM
Ac-[αAllylPro]D[tBuAla][B5(3)]D[TfeGA]AAFT[PyrS2″][Phe(2-Cl)][Bta][MorphAsn]-NH2 (staple 1-4, 4-11) [I-1613] | 9 nM
Ac-[αAllylPro]D[tBuAla][B5(3)]D[Phe(3-COOH)]AAFL[PyrS2″][2F3MeF][Bta][MorphAsn]-NH2 (staple 1-4, 4-11) [I-1614] | 15 nM
Ac-[αAllylPro]D[tBuAla][B5(3)]D[TfeGA]AAFT[PyrS2″][Phe(2-Cl)][Bta][Lys(iPr)]-NH2 (staple 1-4, 4-11) [I-1615] | 9 nM
Ac-[αAllylPro]D[tBuAla][B5(4)]NTAAFL[PyrS2″][3Thi][Bta]Q-NH2 (staple 1-4, 4-11) [I-1618] | 10000 nM
Ac-[αAllylPro]D[tBuAla][B5(4)]NTAAF[Nle][PyrS2″][3Thi][Bta]Q-NH2 (staple 1-4, 4-11) [I-1619] | 1290 nM
Ac-[αAllylPro]D[tBuAla][B5(4)]NTAAF[hLeu][PyrS2″][3Thi][Bta]Q-NH2 (staple 1-4, 4-11) [I-1620] | 2060 nM

Binder | IC50
Ac-[αAllylPro]D[tBuAla][B5(4)]NTAAFT[PyrS2″][3Thi][Bta]Q-NH2 (staple 1-4, 4-11) [I-1621] | 266 nM
B1 | 2080 nM
B2 | 4190 nM
B3 | 8450 nM
Ac-[αAllylPro]D[tBuAla][B5(19)]DYAAF[hSer][PyrS2][3Thi][Bta]Q-NH2 (staple 1-4, 4-11) [I-1783] | 101 nM
Ac-[αAllylPro]D[tBuAla][B5(19)]DYAAFL[PyrS2][3Thi][Bta]Q-NH2 (staple 1-4, 4-11) [I-1784] | 528 nM
Ac-[αAllylPro]D[tBuAla][B5(19)]D[hTyr]AAF[hSer][PyrS2][3Thi][Bta]Q-NH2 (staple 1-4, 4-11) [I-1786] | 42 nM
Ac-[αAllylPro]D[tBuAla][B5(19)]DWAAFN[PyrS2][3Thi][Bta]Q-NH2 (staple 1-4, 4-11) [I-1788] | 58 nM
Ac-[αAllylPro]D[tBuAla][B5(19)]DWAAF[hSer][PyrS2][3Thi][Bta]Q-NH2 (staple 1-4, 4-11) [I-1789] | 183 nM
Ac-[αAllylPro]D[tBuAla][B5(19)]D[Phe(F5)]AAF[hSer][PyrS2][3Thi][Bta]Q-NH2 (staple 1-4, 4-11) [I-1791] | 182 nM
Ac-[αAllylPro]D[tBuAla][B5(19)]D[Phe(F5)]AAFL[PyrS2][3Thi][Bta]Q-NH2 (staple 1-4, 4-11) [I-1792] | 935 nM
B4 | 20 nM
B5 | 52 nM
Moc-[αAllylPro]D[tBuAla][B5(4)]DDAAFQ[PyrS2″][3Thi][Bta]H-NH2 (staple 1-4, 4-11) [I-2362] | 66 nM
Butoxycarbonyl-[αAllylPro]D[tBuAla][B5(4)]DDAAFQ[PyrS2″][3Thi][Bta]H-NH2 (staple 1-4, 4-11) [I-2363] | 44 nM
Isobutyloxycarbonyl-[αAllylPro]D[tBuAla][B5(4)]DDAAFQ[PyrS2″][3Thi][Bta]H-NH2 (staple 1-4, 4-11) [I-2364] | 116 nM
{3‑(allyloxy)benzoyl}-PD[tBuAla][B5(5)]D[TfeGA]AAFL[PyrS2″][3Thi][Bta]Q-NH2 (staple 4-11, N-4; also: -CH=CH- in each staple reduced to -CH2-CH2-) [I-2377] | 978 nM

Biological target: full-length beta-Catenin (Uniprot ID P35222) (Homo sapiens (Human)) (UniProt P35222)
Assay: fluorescence polarization competition vs 5FAM-TCF4(10-53) on full-length beta-catenin
Target sequence in this assay (P35222 2-781 limits assumed): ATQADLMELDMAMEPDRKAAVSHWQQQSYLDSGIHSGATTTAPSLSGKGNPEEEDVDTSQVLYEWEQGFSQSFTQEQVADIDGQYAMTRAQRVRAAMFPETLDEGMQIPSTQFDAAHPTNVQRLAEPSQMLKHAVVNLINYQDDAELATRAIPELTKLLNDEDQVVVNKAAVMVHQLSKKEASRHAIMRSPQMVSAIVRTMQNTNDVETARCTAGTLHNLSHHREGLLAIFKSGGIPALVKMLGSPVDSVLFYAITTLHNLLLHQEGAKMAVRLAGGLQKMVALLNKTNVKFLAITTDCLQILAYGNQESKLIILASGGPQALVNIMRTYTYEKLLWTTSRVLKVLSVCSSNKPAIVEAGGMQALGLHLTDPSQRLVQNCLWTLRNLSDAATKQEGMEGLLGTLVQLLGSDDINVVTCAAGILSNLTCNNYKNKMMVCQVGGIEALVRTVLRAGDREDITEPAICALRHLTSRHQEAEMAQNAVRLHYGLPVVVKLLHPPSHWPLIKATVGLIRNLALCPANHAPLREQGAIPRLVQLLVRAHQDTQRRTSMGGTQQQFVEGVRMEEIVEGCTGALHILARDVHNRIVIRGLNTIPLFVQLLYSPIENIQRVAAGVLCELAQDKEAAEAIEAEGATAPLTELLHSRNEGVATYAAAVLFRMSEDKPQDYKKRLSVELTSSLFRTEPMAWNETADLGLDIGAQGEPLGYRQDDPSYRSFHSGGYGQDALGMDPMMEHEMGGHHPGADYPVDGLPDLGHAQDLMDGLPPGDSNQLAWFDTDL

Binder | IC50
Ac-[αAllylPro]D[tBuAla][B5(25)]D[TfeGA]AAFF[PyrS2″][3Thi][Bta]S-NH2 (staple 1-4, 4-11; not fully specified) [I-963] | 402 nM
